Data: patent US20110097270A1

What was measured:
[1] = target: hepatitis B surface antigen (HBsAg), purified from human plasma (hepatitis B virus); assay: competition inhibition ELISA: free HBsAg against HBsAg-coated wells; I50 of antigen multiplied by 100
[2] = target: hepatitis B surface antigen (HBsAg), purified from human plasma (hepatitis B virus); assay: indirect competition ELISA on HBsAg-coated wells; highest attainable concentration of unlabeled Fab; competitor: HBV#8 IgG
[3] = target: hepatitis B surface antigen (HBsAg), purified from human plasma (hepatitis B virus); assay: indirect competition ELISA on HBsAg-coated wells; highest attainable concentration of unlabeled Fab; competitor: biotinylated HBV#8 Fab
[4] = target: hepatitis B surface antigen (HBsAg), purified from human plasma (hepatitis B virus); assay: competition inhibition ELISA; Kd of the IgG against Kd of the Fab

Chain of hepatitis B surface antigen (HBsAg), purified from human plasma (hepatitis B virus) (P03141 175-400): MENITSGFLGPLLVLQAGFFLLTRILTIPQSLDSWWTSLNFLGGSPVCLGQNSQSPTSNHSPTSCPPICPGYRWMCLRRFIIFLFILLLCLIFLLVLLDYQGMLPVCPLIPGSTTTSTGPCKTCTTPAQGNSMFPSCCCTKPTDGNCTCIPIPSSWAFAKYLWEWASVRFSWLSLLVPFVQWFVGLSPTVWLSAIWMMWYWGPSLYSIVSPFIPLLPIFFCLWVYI

Binder | Kd [1] [nM] | percent inhibition of binding [2] [%] | percent inhibition of binding [3] [%] | fold improvement of affinity (IgG against Fab) [4] [fold]
HBV#8 Fab (Fab, V domains shown) VH: EVQLLESGPGLVKPSQTLSLTCAVSGAFMTSDYLYWSWLRQPPGKGPEWIGGIYTTGRSHYNPSLRGRATLSVDTSKNQFSLELNSVTAADTAVYYCARGQYHNWGPSLFDYYNYYYMDVWGKGTTVTVSS VL: AAELTQSPSSLSASVGDRVTITCRASQDISNYLAWYQQKPGKAPKLLIYSASRLQSGVPSRFSGSGSGTDYTLTLSSLHPEDSATYYCHQYHSAPWTFGQGTKVEIKR | 1900 | 57 | 66 | –
HBV#8 IgG (antibody, V domains shown) VH: EVQLLESGPGLVKPSQTLSLTCAVSGAFMTSDYLYWSWLRQPPGKGPEWIGGIYTTGRSHYNPSLRGRATLSVDTSKNQFSLELNSVTAADTAVYYCARGQYHNWGPSLFDYYNYYYMDVWGKGTTVTVSS VL: AAELTQSPSSLSASVGDRVTITCRASQDISNYLAWYQQKPGKAPKLLIYSASRLQSGVPSRFSGSGSGTDYTLTLSSLHPEDSATYYCHQYHSAPWTFGQGTKVEIKR | 25 | – | – | 75
